Assays:
NKT-cells = experiment: Expansion of NKT-cells in PBMC cultures, CD1d/KRN7000 tetramer staining; type: cell-based, human; details: 100 ng/ml KRN7000 pulsed on MART-1 mRNA-loaded CD40L base process DCs, versus vehicle; FIG. 15a
Experimental: (§1) 100 ng/ml of KRN7000 was pulsed onto the CD40L base process DCs immediately post electroporation in combination with 500 U/ml IFN-γ and 1 μg/ml PGE2, for 24 hrs of culture.
(§2) DCs were generated as described above, employing the ‘CD40L base process’, and loaded with mRNA encoding MART-1. Post electroporation, DCs were incubated with KRN7000, IFN-γ and PGE2. DCs and PBMCs were co-cultured at a 1:10 ratio in the presence of 20 U/ml IL-2. PBMCs were restimulated three times under the same conditions, and the frequency of CTL induction determined by staining with MART-1/A2 tetramers, and the expansion of NKT-cells enumerated using KRN7000/CD1d tetramers by FACS.

MART reactive T-cells = experiment: Induction of MART-1 specific CTLs in PBMC cultures, MART-1/HLA-A2 tetramer staining; type: cell-based, human; details: KRN7000 pulsed on MART-1 mRNA transfected DC, versus vehicle; FIG. 15b
Experimental: as §1, §2

DCs [1] = experiment: Transwell migration assay of DCs to lymph node chemokines CCL19 and 21; type: cell-based, human; details: 1 μg/ml PGE2 in addition to IFN-γ, CD40L mRNA transfected DCs; FIG. 8
Experimental: Chemotaxis of DCs was measured by migration through a 8 μm pore size polycarbonate filter in 24 well transwell chambers (coming Costar, Acton, MA). 5% human AB serum in Iscoves modified Dulbecco's medium or AIM-V medium containing 3-300 ng/ml CCL19, 5-250 ng/ml CCL21, a combination of both or medium alone was added to the lower chamber. 1−5×10^5 DCs in 0.1 ml were added to the upper chamber and incubated for 2-3 hours at 37° C. Lower chamber harvested into 5 ml tubes (BD Biosciences) and re-suspended in 0.1 ml PBS and viable cell counts undertaken using trypan blue.

DCs [2] = experiment: IL-12p70 and IL-10 secretion by DCs undergoing maturation (ELISA of culture supernatants); type: cell-based, human
Experimental: Human PBMCs were isolated from Leukapheresis collections from healthy volunteers provided by Life Blood (Memphis, Tenn.). PBMCs were prepared by Ficoll-Histopaque density centrifugation and washed four times in PBS at room temperature. 2×10^8 PBMCs were re-suspended in 30 ml AIM-V medium and allowed to adhere to […] plastic flasks for 2 hours at 37° C. Non-adherent cells were removed and remaining cells cultured in X-VIVO 15 medium, supplemented with GM-CSF (1000 U/ml) and IL-4 (1000 U/ml), for 5-6 days at 37 C, 5% CO2.
Prior to electroporation, DCs were harvested and washed in PBS and then re-suspended in chilled Viaspane (Barr Laboratories) at 4×10^7/ml in 0.5 ml or 2.5×10^7/ml in 0.2 ml and placed on ice. DCs were mixed with mRNA (1 or 2 μg/10^6 for mRNA encoding antigen and 4 μg/10^6 for CD40L mRNA) and placed in a 4 mm gap electroporation cuvette and electroporated using Biorad apparatus. Immediately after electroporation, DCs were washed in X-VIVO 15 medium and finally re-suspended in X-VIVO 15 supplemented with GM-CSF (800 U/ml) and IL-4 (500 U/ml) at 1×10^6/ml and cultured for either 4 or 24 hours at 37° C. in low adherence six well plates (BD Biosciences, Franklin Lakes, N.J.). Additional maturation stimuli, described below, were also added at this point.
Following electroporation, DCs transfected with CD40L mRNA were treated with IFN-γ (1000 U/ml) or TNF-α (10 ng/ml) or a combination of IFN-γ and PGE2 (1 μg/ml). By comparison, immature DCs were transfected with various antigen-encoding mRNAs and were then treated with a “cytokine cocktail” comprising of TNF-α (10 ng/ml), IL-1β (10 ng/ml), IL-6 (100 ng/ml) and PGE2 (1 μg/ml) or soluble CD40L (200 ng/ml) plus enhancer (1 μg/ml) with either simultaneous or sequential addition of 1000 U/ml IFN-γ.
The method as laid out by BD Pharmingen for IL-12 and IL-10 ELISA sets (BD Pharmingen) using BD Opt EIA reagent set B pH 9.5. Briefly, ELISA plates (BD Biosciences) were coated with anti-IL-12p70 or anti-IL-10 ELISA capture antibody in coating buffer for 24 hours at 4° C. Plates underwent blocking with 200 μl per well 10% FCS/PBS for one hour prior to the addition of standards (BD Pharmingen) and supernatant samples, in duplicate, at 100 μl per well and incubated at room temperature for 2 hours. Plates were washed and anti-cytokine detection antibody added, incubated for one hour, the plates washed and solutions replaced with 100 μl of streptavidin-HRP and further incubated for one hour at room temperature. […] Plate analysis undertaken using Bio-Tek instruments ELx800 plate reader with KC junior software (Winooski, Vt.). […] Because the assays were set up so that 1 ml corresponds to 10^6 DCs, the results can also be expressed as number of picograms/10^6 DCs. […]

[3] = target: human CD40L protein translated from transfected CD40L mRNA (CD40L WT, >400 nucleotide polyA tail) (human) (UniProt P29965); experiment: cell-based or functional assay
[4] = target: human CD40 (the receptor for CD40L) on monocyte-derived dendritic cells (human) (UniProt P25942); experiment: cell-based or functional assay
UniProt P25942, sequence (P25942 21-277 limits assumed): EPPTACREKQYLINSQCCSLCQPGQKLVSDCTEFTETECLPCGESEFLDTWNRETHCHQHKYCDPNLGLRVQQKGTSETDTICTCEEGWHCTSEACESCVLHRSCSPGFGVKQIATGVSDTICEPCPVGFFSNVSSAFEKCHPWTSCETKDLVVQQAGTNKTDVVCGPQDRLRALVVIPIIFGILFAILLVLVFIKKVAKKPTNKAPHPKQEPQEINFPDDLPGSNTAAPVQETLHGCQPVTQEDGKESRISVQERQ

With `CCCCCCCCCCCCCCCCCCCCCCCCCC(=O)N[C@@H](CO[C@H]1O[C@H](CO)[C@H](O)[C@H](O)[C@H]1O)[C@H](O)[C@H](O)CCCCCCCCCCCCCC` [KRN7000, (2S,3S,4R)-1-O-(alpha-D-galactopyranosyl)-2-(N-hexacosanoylamino)-1,3,4-octadecanetriol] the “frequency of NKT-cells in PBMC cultures” value (NKT-cells) was “increase the frequency of NKT-cells” and the “frequency of MART reactive T-cells” value (MART reactive T-cells) was “significantly increases the frequency of MART reactive T-cells”.

`CCCCC[C@H](O)/C=C/[C@H]1[C@H](O)CC(=O)[C@@H]1C/C=C\CCCC(=O)O` [PGE2] was tested, and the DC migration (DCs [1]) was “enables the maturing DCs to migrate”.

For TNF-α, the IL-12 production (DCs [2]; 10 ng/ml TNF-α substituted for IFN-γ, CD40L mRNA transfected DCs, FIG. 5b) was “supports IL-12 production, but at reduced levels”.

“blocking CD40L monoclonal antibody 24-31 (eBioscience)” gave an IL-12p70 (pg/ml), "Cocktail" matured and reactivated DCs co-cultured with HeLa/>400 polyA + IFN-γ + 24-31 [3] of 2.5 pg/mL and an IL-12p70 release from CD40L-mRNA-transfected DCs cultured with IFN-γ and 10 or 50 µg/ml blocking anti-CD40L antibody [3] of 50%.

In the case of “human CD40L protein translated from transfected CD40L mRNA (CD40L WT, >400 nucleotide polyA tail) (from UniProt P29965 1-261) (ligand)”, the IL-12p70 (pg/ml), "Cocktail" matured and reactivated DCs co-cultured with HeLa/>400 polyA + IFN-γ [4] is reported as 26.3 pg/mL and the IL-12p70 (pg/ml), immature DCs co-cultured with HeLa/>400 polyA + IFN-γ [4] is reported as 372 pg/mL.

With “pCR2.1 CD40L WT Delta X-E: CD40L RNA transcribed from plasmid modified by removal of XbaI-EcoRV fragment with three cryptic ATG codons (sense GCATGATCGAAACATACAACC; RNA transcript of DNA sequence, chemistry not fully specified)” the “induction of IL-12 expression by transfected DCs” value (DCs [2]; two independent DC transfection experiments, about 20 hrs post transfection, FIG. 18) was “performed better than the current CD40L reference standard”.

B1: IFN-γ: IFN-γ purchased from R&D Systems, first maturation signal (protein, listed as Homo sapiens)
chain: MKYTSYILAFQLCIVLGSLGCYCQDPYVKEAENLKKYFNAGHSDVADNGTLFLGILKNWKEESDRKIMQSQIVSFYFKLFKNFKDDQSIQKSVETIKEDMNVKFFNSNKKKRDDFEKLTNYSVTDLNVQRKAIHELIQVMAELSPAAKTGKRKRSQMLFQGRRASQ
For B1, the “IFN-γ required to support optimal induction of IL-12p70” value (DCs [2]; DCs transfected with 4 μg CD40L mRNA per million cells, FIG. 4) was “at least 100 U/ml” and the IL-10 production (DCs [2]; IFN-γ versus TNF-α as co-maturation factor, CD40L mRNA transfected DCs, FIG. 5c) was “lower levels of IL-10 production than does TNF-α”.

— patent US20080145931A1, “Mature Dendritic Cell Compositions and Methods of Culturing Same” (Argos Therapeutics, Inc., priority 2004, published 2008)
